Reference: publication PMC4624033
Blank lines part the entries; values can stand above or below the substance they belong to.

Experiments:
Assay in all cases: AUC
PcdhγA8 EC2-EC6 (mouse) = target: PcdhγA8 EC2-EC6 (mouse)
PcdhγA8 EC1-EC4 (mouse) = target: PcdhγA8 EC1-EC4 (mouse)
[1] = target: PcdhγC5 EC1-EC6 (complete ectodomain) (mouse)
Pcdhα7 EC1-EC5 (mouse) = target: Pcdhα7 EC1-EC5 (mouse)
[2] = target: PcdhαC2 EC1-EC6 S118R (mouse)
PcdhγB6 EC1-EC4 = target: PcdhγB6 EC1-EC4
[3] = target: PcdhγC5 EC2-EC6 S116R (mouse)
[4] = target: PcdhγC5 EC1-EC6 S116R (mouse)
[5] = target: PcdhγB6 EC1-EC6 (complete ectodomain)
PcdhαC2 EC1-EC4 (mouse) = target: PcdhαC2 EC1-EC4 (mouse)
PcdhαC2 EC1-EC5 (mouse) = target: PcdhαC2 EC1-EC5 (mouse)
PcdhγC5 EC1-EC5 (mouse) = target: PcdhγC5 EC1-EC5 (mouse)
[6] = target: PcdhαC2 EC1-EC6 (complete ectodomain) (mouse)
PcdhγC5 EC2-EC6 (mouse) = target: PcdhγC5 EC2-EC6 (mouse)
PcdhαC2 EC2-EC6 (mouse) = target: PcdhαC2 EC2-EC6 (mouse)

Kd (PcdhγA8 EC2-EC6 (mouse)): 23 µM | stoichiometry N (PcdhγA8 EC2-EC6 (mouse)): 2
Substance: PcdhγA8 EC2-EC6 (domain or fragment)

Kd (PcdhγA8 EC1-EC4 (mouse)): 30 µM | stoichiometry N (PcdhγA8 EC1-EC4 (mouse)): 2
Substance: PcdhγA8 EC1-EC4 (domain or fragment)

stoichiometry N [1]: 4
Substance: PcdhγC5 EC1-EC6 (complete ectodomain) (domain or fragment)

Kd (Pcdhα7 EC1-EC5 (mouse)): 2.9 µM | stoichiometry N (Pcdhα7 EC1-EC5 (mouse)): 2
Substance: Pcdhα7 EC1-EC5 (domain or fragment)

Kd [2]: 1.8 µM | stoichiometry N [2]: 4
Substance: PcdhαC2 EC1-EC6 S118R (domain or fragment)

Kd (PcdhγB6 EC1-EC4): 29 µM | stoichiometry N (PcdhγB6 EC1-EC4): 2
Substance: PcdhγB6 EC1-EC4 (domain or fragment)

Kd [3]: 14 µM | stoichiometry N [3]: 2
Substance: PcdhγC5 EC2-EC6 S116R (domain or fragment)

Kd [4]: 5.7 µM | stoichiometry N [4]: 2
Substance: PcdhγC5 EC1-EC6 S116R (domain or fragment)

stoichiometry N [5]: 4
Substance: PcdhγB6 EC1-EC6 (complete ectodomain) (domain or fragment)

Kd (PcdhαC2 EC1-EC4 (mouse)): 20 µM | stoichiometry N (PcdhαC2 EC1-EC4 (mouse)): 2
Substance: PcdhαC2 EC1-EC4 (domain or fragment)

Kd (PcdhαC2 EC1-EC5 (mouse)): 5.9 µM | stoichiometry N (PcdhαC2 EC1-EC5 (mouse)): 2
Substance: PcdhαC2 EC1-EC5 (domain or fragment)

Kd (PcdhγC5 EC1-EC5 (mouse)): 100 µM | stoichiometry N (PcdhγC5 EC1-EC5 (mouse)): 2
Substance: PcdhγC5 EC1-EC5 (domain or fragment)

Kd [6]: 0.1 µM | stoichiometry N [6]: 4
Substance: PcdhαC2 EC1-EC6 (complete ectodomain) (domain or fragment)

stoichiometry N (PcdhγC5 EC2-EC6 (mouse)): 2
Substance: PcdhγC5 EC2-EC6 (domain or fragment)

stoichiometry N (PcdhαC2 EC2-EC6 (mouse)): 2
Substance: PcdhαC2 EC2-EC6 (domain or fragment)
